Data on 167 variants can be found in the Human Domainome abundance scans (Beltran et al. 2025).

± gives the uncertainty stated by the source.

The chains are these.
B1: Transcription factor SOX-4, residues 60 to 127; numbered along this chain, Q06945 (parent)
chain: KRPMNAFMVWSQIERRKIMEQSPDMHNAEISKRLGKRWKLLKDSDKIPFIREAERLRLKHMADYPDYK

Variants of B1 are the subject of this data set. Briefly: abundance fitness (aPCA) (normalised: wild type 0, dead -1); higher = more abundant; growth selection in yeast, the domain comes from the species named. The conditions noted are these: Homo sapiens.
As to E20A, the abundance fitness is -0.265 ± 0.098. The value for E20M was -0.239 ± 0.087. To E20H belongs -0.143 ± 0.24; to P65D, 0.103 ± 0.18.

P65S: the abundance fitness is 0.102 ± 0.062.

In the case of L34V, the abundance fitness was -0.83 ± 0.18. In the case of L34I, the abundance fitness is -0.083 ± 0.17. Turning to L34C, the abundance fitness is -0.825 ± 0.18. For L58E, the abundance fitness came out at 0.091 ± 0.058.

For the variant L58W, the abundance fitness is -0.247 ± 0.055.

Take L58Q: the abundance fitness was 0.046 ± 0.12.

Regarding L58G, the abundance fitness worked out at 0.015 ± 0.034. To L56C belongs -0.408 ± 0.1; to L56Y, -0.349 ± 0.22; to L56R, -0.254 ± 0.054. With L56M, the abundance fitness was 0.115 ± 0.14. As for E29H, the abundance fitness was -0.879 ± 0.46. With E29P, the abundance fitness is -0.162 ± 0.15.

Consider E29M, for which the abundance fitness was -0.225 ± 0.12. To E29S belongs -0.539 ± 0.094; to R55T, -0.181 ± 0.067; to R55G, -0.337 ± 0.035. The value for R55C was -0.292 ± 0.056; that for E52P was -1.14 ± 0.29; that for E52Q was -0.291 ± 0.088. With A62V, the abundance fitness is -0.123 ± 0.037. The value for A62P was -0.157 ± 0.067; that for A62W was -0.249 ± 0.054; that for A62K was 0.008 ± 0.063.

R2G: the abundance fitness was -0.121 ± 0.086. For R2T, the abundance fitness was -0.457 ± 0.2. For the variant R16M, the abundance fitness is -0.212 ± 0.075. Consider R16S, for which the abundance fitness is -0.174 ± 0.041. Consider R16G, for which the abundance fitness is -0.254 ± 0.04.

In the case of S22L, the abundance fitness was -0.458 ± 0.057. For the variant S22D, the abundance fitness is -0.034 ± 0.05. Regarding S22H, the abundance fitness was -0.01 ± 0.061. On to S22F, for which the abundance fitness amounted to 0.106 ± 0.05. M8E: the abundance fitness came to 0.232 ± 0.073. As for M8V, the abundance fitness is -0.178 ± 0.048.

For the variant P48Q, the abundance fitness is -0.286 ± 0.2. To P48S belongs -0.453 ± 0.057. Consider P48M, for which the abundance fitness is -0.168 ± 0.069. As for F49V, the abundance fitness is -0.763 ± 0.094.

With F49Q, the abundance fitness was -0.972 ± 0.15. Consider F49L, for which the abundance fitness is -0.598 ± 0.065. To P23D belongs -0.564 ± 0.059. The value for P23E was -0.554 ± 0.065. For K39I, the abundance fitness is -0.384 ± 0.037. K39Y: the abundance fitness was -0.263 ± 0.076. On to K39T, for which the abundance fitness was -0.216 ± 0.064. To K39C belongs -0.329 ± 0.044; to M4F, -0.033 ± 0.11; to M4G, -0.311 ± 0.063.

For the variant M4D, the abundance fitness was -0.28 ± 0.071. In the case of L40C, the abundance fitness is -0.046 ± 0.043. As to L40D, the abundance fitness worked out at 0.094 ± 0.058. The value for M61K was 0.003 ± 0.089; that for M61Q was 0.092 ± 0.079. R15A: the abundance fitness was -0.38 ± 0.061. For W10E, the abundance fitness was -0.964 ± 0.28. To W10L belongs -0.999 ± 0.12; to W10R, -0.649 ± 0.093. Take H26M: the abundance fitness is -0.182 ± 0.093. For H26C, the abundance fitness worked out at 0.127 ± 0.084.

On to H26F, for which the abundance fitness is -0.713 ± 0.43.

H26P: the abundance fitness is 0.134 ± 0.092.

For E54H, the abundance fitness is -0.435 ± 0.045.

In the case of E54Y, the abundance fitness was -0.652 ± 0.058. For the variant E54A, the abundance fitness was -0.29 ± 0.062.

Take L41P: the abundance fitness was -0.728 ± 0.21. As for N27T, the abundance fitness is -0.049 ± 0.051. As for N27C, the abundance fitness was -0.164 ± 0.055. For the variant N27H, the abundance fitness amounted to 0.059 ± 0.049. Regarding N27I, the abundance fitness is -0.192 ± 0.054. The value for N27V was -0.07 ± 0.041; that for K42G was -0.264 ± 0.075. Turning to K42M, the abundance fitness is -0.465 ± 0.1. As to V9L, the abundance fitness turned out to be 0.037 ± 0.046.

Regarding V9K, the abundance fitness was -0.978 ± 0.29.

As to V9S, the abundance fitness is -0.803 ± 0.15.

For the variant D43E, the abundance fitness is -0.058 ± 0.057. To D43S belongs -0.237 ± 0.037; to I47M, -0.047 ± 0.05.

Take I47C: the abundance fitness is -0.546 ± 0.062. For the variant I47Y, the abundance fitness was -0.224 ± 0.054. As to I47W, the abundance fitness was -0.251 ± 0.045. Regarding K46T, the abundance fitness was -0.694 ± 0.06.

Regarding K46Y, the abundance fitness was -1 ± 0.13. Take K46A: the abundance fitness was -0.937 ± 0.13. K46P: the abundance fitness was -0.933 ± 0.2. Y67Q: the abundance fitness was 0.051 ± 0.15.

As to Y67N, the abundance fitness worked out at 0.034 ± 0.15. With Y67W, the abundance fitness was -0.296 ± 0.11. For K17A, the abundance fitness was -0.765 ± 0.21.

For K17I, the abundance fitness is -0.178 ± 0.14. D63L: the abundance fitness was -0.208 ± 0.039. I30Q: the abundance fitness was -0.7 ± 0.078.

As for I30E, the abundance fitness is -0.8 ± 0.092. On to I30M, for which the abundance fitness is -0.254 ± 0.063.

In the case of I30P, the abundance fitness is -0.976 ± 0.18. Regarding K1L, the abundance fitness is -0.347 ± 0.21.

Regarding K32W, the abundance fitness is -0.243 ± 0.049. Regarding K32Y, the abundance fitness was -0.062 ± 0.053. The value for K32Q was 0.066 ± 0.079. For K32H, the abundance fitness is -0.154 ± 0.039.

With K32E, the abundance fitness is 0.183 ± 0.044. For the variant K36V, the abundance fitness was determined as 0.057 ± 0.063. To K36I belongs 0.143 ± 0.36; to K36H, -0.141 ± 0.15; to S44Y, -0.687 ± 0.19. To S44C belongs -0.472 ± 0.13. To S44Q belongs -0.073 ± 0.073; to S31Q, -0.038 ± 0.078; to S31L, -0.045 ± 0.041. Regarding S31F, the abundance fitness was -0.212 ± 0.043.

Turning to S31P, the abundance fitness is -0.733 ± 0.11. S31I: the abundance fitness was -0.054 ± 0.061. Take M25I: the abundance fitness stood at 0.004 ± 0.4. The value for M25G was -0.713 ± 0.092; that for M25K was -0.216 ± 0.082; that for M25A was -0.019 ± 0.058. Turning to I13K, the abundance fitness was -0.195 ± 0.11. To I13F belongs -0.21 ± 0.18; to D45V, -0.414 ± 0.082.

Take D66R: the abundance fitness was determined as 0.015 ± 0.078.

On to D66Q, for which the abundance fitness was -0.254 ± 0.083. The value for D66T was -0.216 ± 0.069; that for I18T was -0.701 ± 0.22. To I18S belongs -0.665 ± 0.13; to A53R, -0.924 ± 0.087; to A53G, -0.684 ± 0.08. Y64M: the abundance fitness was -0.061 ± 0.078.

Take Y64Q: the abundance fitness is -0.112 ± 0.13. As for S11V, the abundance fitness is -0.529 ± 0.058. With S11Y, the abundance fitness was -0.29 ± 0.048. On to S11T, for which the abundance fitness is -0.69 ± 0.11. As for S11N, the abundance fitness is -0.762 ± 0.099.

For D24W, the abundance fitness is -0.188 ± 0.063.

With D24E, the abundance fitness was -0.052 ± 0.051. For R37I, the abundance fitness was -0.371 ± 0.21.

Regarding R37V, the abundance fitness was -0.2 ± 0.06. Turning to R57E, the abundance fitness was -0.111 ± 0.066. R57P: the abundance fitness is -0.236 ± 0.093. For the variant A28R, the abundance fitness is -0.132 ± 0.052. The value for A28G was -0.166 ± 0.054. K59P: the abundance fitness is -0.178 ± 0.089.

Consider H60D, for which the abundance fitness came out at 0.005 ± 0.075.

For the variant H60V, the abundance fitness is -0.173 ± 0.053.

As to H60T, the abundance fitness was -0.05 ± 0.069. The value for W38A was -1.01 ± 0.1; that for W38Q was -1.02 ± 0.24; that for R33S was -0.1 ± 0.07.

Consider G35E, for which the abundance fitness was 0.262 ± 0.057. M19F: the abundance fitness is -0.257 ± 0.054. In the case of M19Y, the abundance fitness was -0.459 ± 0.064.

As for M19T, the abundance fitness is -0.338 ± 0.098. In the case of Q21A, the abundance fitness was -0.169 ± 0.065. For Q21Y, the abundance fitness is -0.63 ± 0.26. On to Q21K, for which the abundance fitness is -0.204 ± 0.088. On to Q21P, for which the abundance fitness was -0.874 ± 0.15. For I50S, the abundance fitness was -0.322 ± 0.086.

I50F: the abundance fitness was 0.003 ± 0.12. Turning to I50W, the abundance fitness is -0.633 ± 0.15.

Turning to N5L, the abundance fitness was -0.589 ± 0.095. N5R: the abundance fitness was -0.879 ± 0.19.

On to N5A, for which the abundance fitness is -0.559 ± 0.1.
